The results in this text go back to paper PMC7480107.

The target in the assay is F-actin (rabbit muscle actin, polymerized) (rabbit) (UniProt P68135). As to the kind of experiment: co-sedimentation.

As for “Pav^DEAD-HEAD (1-500 aa with G131E mutation) (domain or fragment)”, the percent of the protein in the pellet with F-actin worked out at 87%.

The substance “Pav-HEAD (1-500 aa) (domain or fragment)” yielded a percent of the protein in the pellet with F-actin of 84%.
